Data set [1] has as its target H3KC36me3 nucleosomes (recombinant MLA nucleosomes reconstituted on 601 DNA) (Drosophila) (UniProt P02299). Put plainly: native gel or EMSA; 1.5 or 3 pmol reconstituted nucleosome with 0, 0.5, 1, 2 and 3 molar equivalents of glutathione agarose purified GST-PWWP protein; 0.2X TBE, 4°C, native 5% gel, ethidium bromide; band densities fitted to a 2:1 model. (In general: A gel shift assay detects complexes by their altered migration in electrophoresis.)

Data set [2] concerns PSIP1-PWWP (human). Put plainly: NMR titration (1H-15N HSQC CSP). The settings on record: EMSA: 0.2X TBE, 4 C, 1.5 or 3 pmol nucleosome in 8 uL, up to 3 molar equivalents of protein, native 5% gel; NMR: 293 K (DNA titration), 308 K (nucleosome …).
For a further data set, the system named is GST-PSIP1-PWWP (human). The experiment in a line: EMSA. The following applies: histone H3KC36me3 (methyl-lysine analogue); EMSA: 0.2X TBE, 4 C, 1.5 or 3 pmol nucleosome in 8 uL, up to 3 molar equivalents of protein, native 5% gel; NMR: 293 K (DNA titration), 308 K (nucleosome …).
The test system of data set [3] is PSIP1-PWWP (human). The experiment in a line: NMR methyl-TROSY line shape fit. The settings on record: 308 K; 1:2 nucleosome:PWWP model; koff 500 s-1; histone H3KC36me3 (methyl-lysine analogue); EMSA: 0.2X TBE, 4 C, 1.5 or 3 pmol nucleosome in 8 uL, up to 3 molar equivalents of protein, native 5% gel; NMR: 293 K (DNA titration), 308 K (nucleosome …).
Data set [4] addresses H3KC36me3 nucleosomes (recombinant MLA nucleosomes reconstituted on 601 DNA) (Drosophila) (UniProt P02299).
For data set [5], the target named is PSIP1-PWWP domain (residues 3 to 100, GST removed by thrombin) (human) (UniProt O75475). Put plainly: NMR titration; 1H-15N HSQC of 0.3 mM PWWP, peptide added; 20 mM NaPi pH 7.0, 100 mM NaCl, 293 K, 600 MHz; chemical shift perturbation curves fitted in fast exchange.

Like-named read-outs stand apart in the source and are kept apart here.

Chain of PSIP1-PWWP domain (residues 3 to 100, GST removed by thrombin) (human) (O75475 3-100): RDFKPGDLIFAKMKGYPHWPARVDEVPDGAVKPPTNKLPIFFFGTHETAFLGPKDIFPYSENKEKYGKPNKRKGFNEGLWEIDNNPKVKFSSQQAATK
Chain of GST-PWWP (PSIP1-PWWP domain, residues 3 to 100, GST fusion) (O75475 3-100): as above
Chain of PSIP1-PWWP domain (residues 3 to 100, GST removed by thrombin) (O75475 3-100): as above

Consider “GST-PWWP (PSIP1-PWWP domain, residues 3 to 100, GST fusion) (from UniProt O75475 3-100) (domain or fragment)”, for which, in data set [1], the equilibrium dissociation constant (Kd) (in general, the concentration at which binding is half-saturated) turned out to be 0.5 µM.

As to SRE-DNA dsDNA fragment, the dissociation constant (Kd) in the data set with PSIP1-PWWP (human) [2] amounted to 150 µM.

H3KC36me3 MLA nucleosome on 601 DNA: the dissociation constant (Kd) in the data set with GST-PSIP1-PWWP (human) was 0.5 µM; in the data set with PSIP1-PWWP (human) [3] it was 1.5 µM.

With “PSIP1-PWWP domain (residues 3 to 100, GST removed by thrombin) (from UniProt O75475 3-100) (domain or fragment)”, the Kd in data set [4] was 1.5 µM.

On to H3KC36me3 peptide (NMR titration), for which the equilibrium dissociation constant (Kd) in data set [5] is 11000 µM.

Source of the values: article PMC3663649, “Nucleosomal DNA binding drives the recognition of H3K36-methylated nucleosomes by the PSIP1-PWWP domain” (Epigenetics & Chromatin, 2013).
